Measurements: paper PMC5912465

Target: T1, human CCL8 (residues Gln-24 to Pro-99), expressed in E. coli (human), P80075
T1 chain: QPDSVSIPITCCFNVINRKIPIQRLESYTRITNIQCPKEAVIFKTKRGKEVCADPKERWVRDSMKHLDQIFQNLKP
Assay: native MS; CCL8 alone in 200 mM ammonium acetate pH 6.5; modified Q Exactive, capillary voltage 1.2 kV, source temperature 100 °C
Details: remark: other sources report otherwise

B1: human CCL8 (residues Gln-24 to Pro-99), expressed in E. coli, P80075 24-99 (ligand)
chain: T1 chain
stoichiometry N: 2
